The text below walks through data of article PMC2662861, “An unexpected phosphate binding site in Glyceraldehyde 3-Phosphate Dehydrogenase: Crystal structures of apo, holo and ternary complex of Cryptosporidium parvum enzyme” (BMC Structural Biology, 2009).

Substrate in this data set: O=C[C@H](O)COP(=O)(O)O
Put plainly: purified protein. The note with it: 150 μM NAD, 50 mM triethanolamine, 50 mM Na2HPO4, 0.2 mM EDTA, pH 8.8, D-G3H 1.47-5.88 mM supplied as DL-G3H. The format is biochemical, Cryptosporidium parvum.

B1: CpGAPDH (Cryptosporidium parvum glyceraldehyde 3-phosphate dehydrogenase) (Cryptosporidium parvum) (protein)
chain: MTATLGINGFGRIGRLVLRACMERNDITVVAINDPFMDVEYMAYLLKYDSVHGNFNGTVEVSGKDLCINGKVVKVFQAKDPAEIPWGASGAQIVCESTGVFTTEEKASLHLKGGAKKVIISAPPKDNVPMYVMGVNNTEYDPSKFNVISNASCTTNCLAPLAKIINDKFGIVEGLMTTVHSLTANQLTVDGPSKGGKDWRAGRCAGNNIIPASTGAAKAVGKVIPALNGKLTGMAIRVPTPDVSVVDLTCKLAKPASIEEIYQAVKEASNGPMKGIMGYTSDDVVSTDFIGCKYSSIFDKNACIALNDSFVKLISWYDNESGYSNRLVDLAVYVASRGL
notes: recombinant, N-terminal hexa-histidine tag kept, expressed in E. coli; homotetramer
With B1, the Km was found to be 762.7 ± 43.0 µM.
